Target: HA-tagged human Junctophilin-2 with seven point mutations in the Joining region (Ad-mut^PG1JPH2) (human) (UniProt Q9BR39)
Assay: co-IP + proximity ligation

## L-type Ca2+ channel pore-forming subunit α1C (natural protein)
  percent reduction of the interaction against WT-JPH2: 30 to 40%
